Results reported in patent publication US20090276160A1.

How the values were obtained:
Assay in all cases: cell-based or functional assay
[1] = target: Activated Protein C (Haematologic Technologies) (human) (UniProt P04070)
[2] = target: Bovine trypsin (Worthington) (bovine) (UniProt P00760)
[3] = target: Chymotrypsin (Sigma) (human) (UniProt P17538)
[4] = target: T1, Complement factor C1s (Calbiochem) (human) (UniProt P09871)
T1 sequence (looked up): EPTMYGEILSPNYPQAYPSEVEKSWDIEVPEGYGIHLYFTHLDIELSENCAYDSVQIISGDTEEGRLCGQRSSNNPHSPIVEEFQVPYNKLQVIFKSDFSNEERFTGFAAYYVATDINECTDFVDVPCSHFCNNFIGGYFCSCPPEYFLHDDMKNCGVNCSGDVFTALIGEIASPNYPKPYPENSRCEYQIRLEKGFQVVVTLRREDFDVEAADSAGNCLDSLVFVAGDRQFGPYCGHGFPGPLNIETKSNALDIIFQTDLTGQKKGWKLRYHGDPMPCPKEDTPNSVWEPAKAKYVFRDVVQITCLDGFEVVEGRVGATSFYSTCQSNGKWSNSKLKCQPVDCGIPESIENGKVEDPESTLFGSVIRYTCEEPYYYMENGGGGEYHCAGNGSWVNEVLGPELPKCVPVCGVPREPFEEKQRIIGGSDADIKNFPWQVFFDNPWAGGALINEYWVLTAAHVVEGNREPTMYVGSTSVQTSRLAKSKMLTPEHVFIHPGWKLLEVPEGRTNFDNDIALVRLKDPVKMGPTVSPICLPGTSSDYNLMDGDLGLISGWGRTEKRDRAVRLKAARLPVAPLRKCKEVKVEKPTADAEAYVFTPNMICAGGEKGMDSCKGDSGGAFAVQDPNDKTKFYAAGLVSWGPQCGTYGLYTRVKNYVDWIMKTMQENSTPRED

[5] = target: Factor XIIa (American Diagnostica) (human) (UniProt P00748)
[6] = target: Factor XIa (Haematologic Technologies) (human) (UniProt P03951)
[7] = target: Factor Xa (Haematologic Technologies) (human) (UniProt P00742)
Chain of Factor Xa (Haematologic Technologies) (human) (P00742 41-179 limits assumed, chain 1 of 2): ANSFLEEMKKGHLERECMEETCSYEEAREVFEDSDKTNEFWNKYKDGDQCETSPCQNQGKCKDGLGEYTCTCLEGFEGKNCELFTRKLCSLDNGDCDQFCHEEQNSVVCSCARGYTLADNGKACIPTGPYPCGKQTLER
Chain of Factor Xa (Haematologic Technologies) (human) (P00742 235-488 limits assumed, chain 2 of 2): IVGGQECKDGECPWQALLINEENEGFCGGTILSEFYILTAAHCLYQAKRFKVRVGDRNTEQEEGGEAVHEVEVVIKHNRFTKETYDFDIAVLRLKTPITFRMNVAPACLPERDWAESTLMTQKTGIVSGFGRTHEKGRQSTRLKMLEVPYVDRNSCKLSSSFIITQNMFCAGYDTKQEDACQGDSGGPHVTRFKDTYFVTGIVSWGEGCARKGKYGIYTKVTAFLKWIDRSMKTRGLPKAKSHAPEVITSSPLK

[8] = target: Hepatocyte growth factor activator (HGFA), activated 34 kDa short form, residues Val373 to Ser655 with a C-terminal poly-histidine tag (human) (UniProt Q04756)
Chain of Hepatocyte growth factor activator (HGFA), activated 34 kDa short form, residues Val373 to Ser655 with a C-terminal poly-histidine tag (human) (Q04756 373-407, chain 1 of 2): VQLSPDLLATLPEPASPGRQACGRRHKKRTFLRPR
Chain of Hepatocyte growth factor activator (HGFA), activated 34 kDa short form, residues Val373 to Ser655 with a C-terminal poly-histidine tag (human) (Q04756 408-655, chain 2 of 2): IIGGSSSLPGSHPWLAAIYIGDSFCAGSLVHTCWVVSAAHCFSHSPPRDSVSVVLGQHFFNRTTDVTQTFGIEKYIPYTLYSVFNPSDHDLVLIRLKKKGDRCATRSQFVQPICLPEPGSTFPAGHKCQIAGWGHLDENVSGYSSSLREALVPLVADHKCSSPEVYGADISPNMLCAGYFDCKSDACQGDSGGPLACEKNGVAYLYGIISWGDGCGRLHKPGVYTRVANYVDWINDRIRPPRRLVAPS

[9] = target: Hepsin (residues 45-417) (human) (UniProt P05981)
Chain of Hepsin (residues 45-417) (human) (P05981 45-417 limits assumed): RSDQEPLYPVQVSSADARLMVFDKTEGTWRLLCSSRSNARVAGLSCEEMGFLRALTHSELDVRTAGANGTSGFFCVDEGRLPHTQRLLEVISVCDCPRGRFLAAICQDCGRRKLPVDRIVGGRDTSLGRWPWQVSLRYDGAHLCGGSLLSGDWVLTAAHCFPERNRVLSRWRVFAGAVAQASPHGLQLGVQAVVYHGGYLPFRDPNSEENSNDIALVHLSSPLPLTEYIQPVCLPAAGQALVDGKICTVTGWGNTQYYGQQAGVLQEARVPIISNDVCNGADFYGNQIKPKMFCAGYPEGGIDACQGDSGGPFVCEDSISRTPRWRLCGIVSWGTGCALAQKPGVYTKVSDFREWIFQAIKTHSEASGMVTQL

[10] = target: T2, Matriptase (residues 615-855) (human) (UniProt Q9Y5Y6)
T2 sequence (looked up): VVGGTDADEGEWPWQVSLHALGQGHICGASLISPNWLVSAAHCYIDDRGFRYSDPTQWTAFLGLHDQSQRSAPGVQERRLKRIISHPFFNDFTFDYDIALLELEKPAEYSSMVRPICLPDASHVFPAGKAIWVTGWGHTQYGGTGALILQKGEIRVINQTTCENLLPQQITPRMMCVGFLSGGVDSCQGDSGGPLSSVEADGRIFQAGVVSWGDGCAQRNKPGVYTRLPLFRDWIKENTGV

[11] = target: Plasma kallikrein (American Diagnostica) (human) (UniProt P03952)
Chain of Plasma kallikrein (American Diagnostica) (human) (P03952 20-638 limits assumed): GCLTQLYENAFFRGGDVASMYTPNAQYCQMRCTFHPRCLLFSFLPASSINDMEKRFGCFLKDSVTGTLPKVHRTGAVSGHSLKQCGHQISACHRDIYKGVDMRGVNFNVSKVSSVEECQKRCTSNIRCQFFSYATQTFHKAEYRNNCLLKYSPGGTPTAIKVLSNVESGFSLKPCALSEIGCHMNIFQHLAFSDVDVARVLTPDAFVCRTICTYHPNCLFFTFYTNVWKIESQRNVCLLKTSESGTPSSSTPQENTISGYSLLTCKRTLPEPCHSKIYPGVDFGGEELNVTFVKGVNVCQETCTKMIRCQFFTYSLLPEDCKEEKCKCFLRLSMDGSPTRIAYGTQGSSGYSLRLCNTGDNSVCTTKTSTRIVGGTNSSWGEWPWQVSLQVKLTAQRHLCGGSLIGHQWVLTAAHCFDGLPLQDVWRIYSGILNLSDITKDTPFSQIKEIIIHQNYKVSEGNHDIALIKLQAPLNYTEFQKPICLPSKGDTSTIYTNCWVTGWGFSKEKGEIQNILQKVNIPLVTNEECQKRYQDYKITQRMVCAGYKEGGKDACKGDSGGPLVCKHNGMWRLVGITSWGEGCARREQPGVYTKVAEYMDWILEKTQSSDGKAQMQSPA

[12] = target: Plasmin (Haematologic Technologies) (human) (UniProt P00747)
Chain of Plasmin (Haematologic Technologies) (human) (P00747 97-810 limits assumed): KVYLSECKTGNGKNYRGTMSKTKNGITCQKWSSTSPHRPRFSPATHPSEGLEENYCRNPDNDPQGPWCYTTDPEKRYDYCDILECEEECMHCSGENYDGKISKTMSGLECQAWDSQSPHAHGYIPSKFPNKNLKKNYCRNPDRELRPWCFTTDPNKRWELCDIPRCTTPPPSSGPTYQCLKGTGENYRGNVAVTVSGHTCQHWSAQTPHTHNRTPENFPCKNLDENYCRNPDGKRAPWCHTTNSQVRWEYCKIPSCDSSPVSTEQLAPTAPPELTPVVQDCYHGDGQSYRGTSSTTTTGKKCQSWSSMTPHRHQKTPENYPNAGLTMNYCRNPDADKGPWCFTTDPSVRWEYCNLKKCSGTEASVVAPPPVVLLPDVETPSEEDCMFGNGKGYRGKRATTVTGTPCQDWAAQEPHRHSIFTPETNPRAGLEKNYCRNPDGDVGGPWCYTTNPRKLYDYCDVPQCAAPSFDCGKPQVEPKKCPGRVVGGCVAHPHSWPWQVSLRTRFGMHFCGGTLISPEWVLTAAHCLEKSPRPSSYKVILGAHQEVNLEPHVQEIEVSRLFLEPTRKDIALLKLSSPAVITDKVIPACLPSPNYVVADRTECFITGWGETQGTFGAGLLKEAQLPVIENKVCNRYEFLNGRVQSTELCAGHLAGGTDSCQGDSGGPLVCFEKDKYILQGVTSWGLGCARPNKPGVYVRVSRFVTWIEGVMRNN

[13] = target: Thrombin (Haematologic Technologies) (human) (UniProt P00734)
[14] = target: Tissue factor/factor VIIa complex: human tissue factor (residues 1-219) with human recombinant FVIIa (human) (UniProt P13726)
Chain of Tissue factor/factor VIIa complex: human tissue factor (residues 1-219) with human recombinant FVIIa (human) (P13726 33-251 limits assumed, chain 1 of 2): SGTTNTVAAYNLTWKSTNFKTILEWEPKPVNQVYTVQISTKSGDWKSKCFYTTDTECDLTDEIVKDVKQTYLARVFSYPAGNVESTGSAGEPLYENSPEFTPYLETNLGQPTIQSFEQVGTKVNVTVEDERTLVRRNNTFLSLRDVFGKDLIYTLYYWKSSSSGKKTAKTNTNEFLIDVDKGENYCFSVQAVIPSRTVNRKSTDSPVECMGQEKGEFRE
Chain of Tissue factor/factor VIIa complex: human tissue factor (residues 1-219) with human recombinant FVIIa (human) (P08709 61-466 limits assumed, chain 2 of 2, further chain): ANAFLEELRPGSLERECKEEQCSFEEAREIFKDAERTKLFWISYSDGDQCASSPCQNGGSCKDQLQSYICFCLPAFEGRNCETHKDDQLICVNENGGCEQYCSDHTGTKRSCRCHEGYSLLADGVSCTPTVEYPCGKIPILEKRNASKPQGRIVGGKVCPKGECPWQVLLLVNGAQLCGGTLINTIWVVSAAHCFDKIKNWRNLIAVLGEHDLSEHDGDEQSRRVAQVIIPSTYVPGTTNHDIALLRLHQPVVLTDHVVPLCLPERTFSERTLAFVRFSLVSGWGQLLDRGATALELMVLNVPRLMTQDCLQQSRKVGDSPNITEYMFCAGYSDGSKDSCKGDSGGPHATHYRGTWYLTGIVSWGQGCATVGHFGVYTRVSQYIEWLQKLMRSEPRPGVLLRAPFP

[15] = target: tPA (Activase, Genentech) (human) (UniProt P00750)
Chain of tPA (Activase, Genentech) (human) (P00750 36-562 limits assumed): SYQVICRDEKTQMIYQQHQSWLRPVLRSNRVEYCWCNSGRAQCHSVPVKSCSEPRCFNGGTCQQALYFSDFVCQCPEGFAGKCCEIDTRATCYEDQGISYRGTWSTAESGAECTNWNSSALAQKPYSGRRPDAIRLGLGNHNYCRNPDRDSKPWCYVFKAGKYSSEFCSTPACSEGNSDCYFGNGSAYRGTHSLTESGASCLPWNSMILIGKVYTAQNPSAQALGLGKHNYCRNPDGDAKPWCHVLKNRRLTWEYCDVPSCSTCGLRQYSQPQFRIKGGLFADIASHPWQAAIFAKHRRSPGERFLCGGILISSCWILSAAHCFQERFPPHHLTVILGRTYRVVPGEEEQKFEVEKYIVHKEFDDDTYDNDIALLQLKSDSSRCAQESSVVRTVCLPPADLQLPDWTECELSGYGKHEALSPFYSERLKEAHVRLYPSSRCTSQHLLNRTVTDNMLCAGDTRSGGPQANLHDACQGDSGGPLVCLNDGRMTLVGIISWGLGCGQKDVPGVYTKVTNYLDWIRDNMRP

uPA (Chemicon) (human) = uPA (Chemicon) (human) (UniProt P00749)

Chain of sHAI-1B, soluble HAI-1B ectodomain (O43278 36-465 limits assumed): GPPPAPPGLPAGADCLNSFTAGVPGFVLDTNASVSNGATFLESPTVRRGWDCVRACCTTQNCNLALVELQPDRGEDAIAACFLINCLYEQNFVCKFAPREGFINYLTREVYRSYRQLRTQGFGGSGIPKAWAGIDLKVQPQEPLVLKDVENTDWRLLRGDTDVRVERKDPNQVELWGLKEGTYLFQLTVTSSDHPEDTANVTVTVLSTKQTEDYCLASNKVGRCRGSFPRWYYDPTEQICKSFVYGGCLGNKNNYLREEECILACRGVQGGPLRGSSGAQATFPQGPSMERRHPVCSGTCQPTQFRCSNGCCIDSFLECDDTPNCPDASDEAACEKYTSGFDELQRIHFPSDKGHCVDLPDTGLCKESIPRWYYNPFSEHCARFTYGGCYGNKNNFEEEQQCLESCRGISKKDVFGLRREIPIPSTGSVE
Chain of Bovine trypsin (Worthington) (bovine) (P00760 24-246): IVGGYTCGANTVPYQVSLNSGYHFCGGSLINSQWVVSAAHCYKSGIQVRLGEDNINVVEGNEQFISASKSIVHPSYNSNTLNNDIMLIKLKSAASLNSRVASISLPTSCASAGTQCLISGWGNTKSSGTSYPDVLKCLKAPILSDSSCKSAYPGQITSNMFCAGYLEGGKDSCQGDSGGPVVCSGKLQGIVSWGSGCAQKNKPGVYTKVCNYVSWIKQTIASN
Chain of Chymotrypsin (Sigma) (human) (P17538 19-263): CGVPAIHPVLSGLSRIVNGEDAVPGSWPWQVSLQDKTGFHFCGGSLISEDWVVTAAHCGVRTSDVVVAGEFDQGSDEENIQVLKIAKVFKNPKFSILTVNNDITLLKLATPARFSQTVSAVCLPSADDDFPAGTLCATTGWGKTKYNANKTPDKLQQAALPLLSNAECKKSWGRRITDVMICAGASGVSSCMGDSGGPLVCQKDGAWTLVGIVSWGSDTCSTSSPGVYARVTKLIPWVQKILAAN
Chain of Activated Protein C (Haematologic Technologies) (human) (P04070 43-197, form in doubt, chain 1 of 2): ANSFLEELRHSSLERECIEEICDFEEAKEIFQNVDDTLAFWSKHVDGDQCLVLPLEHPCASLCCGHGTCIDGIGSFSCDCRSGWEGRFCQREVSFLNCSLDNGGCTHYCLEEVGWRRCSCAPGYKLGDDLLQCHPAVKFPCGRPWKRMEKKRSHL
Chain of Activated Protein C (Haematologic Technologies) (human) (P04070 212-461, form in doubt, chain 2 of 2): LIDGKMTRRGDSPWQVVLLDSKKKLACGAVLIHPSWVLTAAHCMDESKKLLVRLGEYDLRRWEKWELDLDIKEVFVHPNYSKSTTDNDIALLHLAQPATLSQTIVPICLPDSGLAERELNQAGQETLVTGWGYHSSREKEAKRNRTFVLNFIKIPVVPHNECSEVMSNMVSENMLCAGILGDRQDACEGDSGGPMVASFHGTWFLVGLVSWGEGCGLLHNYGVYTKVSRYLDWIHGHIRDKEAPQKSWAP

- IC50 (nM), inhibition of enzyme activity on chromogenic substrate [1]: > 2000 nM
- IC50 (nM), inhibition of enzyme activity on chromogenic substrate [2]: 2.4 nM
- IC50 (sHAI-1B)/IC50 (KD1) [2]: 3
- IC50 (nM), inhibition of enzyme activity on chromogenic substrate [3]: > 2000 nM
- IC50 (nM), inhibition of enzyme activity on chromogenic substrate [4]: > 2000 nM
- IC50 (nM), inhibition of enzyme activity on chromogenic substrate [5]: > 2000 nM
- IC50 (nM), inhibition of enzyme activity on chromogenic substrate [6]: > 2000 nM
- IC50 (nM), inhibition of enzyme activity on chromogenic substrate [7]: > 2000 nM
- IC50 (nM), inhibition of enzyme activity on chromogenic substrate [8]: 30.5 nM
- IC50 (sHAI-1B)/IC50 (KD1) [8]: 8
- IC50 (nM), inhibition of enzyme activity on chromogenic substrate [9]: 21.1 nM
- IC50 (sHAI-1B)/IC50 (KD1) [9]: 3
- IC50 (nM), inhibition of enzyme activity on chromogenic substrate [10]: 16.5 nM
- IC50 (sHAI-1B)/IC50 (KD1) [10]: 10
- IC50 (nM), inhibition of enzyme activity on chromogenic substrate [11]: 686 nM
- IC50 (sHAI-1B)/IC50 (KD1) [11]: 33
- IC50 (nM), inhibition of enzyme activity on chromogenic substrate [12]: 399 nM
- IC50 (sHAI-1B)/IC50 (KD1) [12]: 3
- IC50 (nM), inhibition of enzyme activity on chromogenic substrate [13]: > 2000 nM
- IC50 (nM), inhibition of enzyme activity on chromogenic substrate [14]: > 2000 nM
- IC50 (nM), inhibition of enzyme activity on chromogenic substrate [15]: > 2000 nM
- IC50 (nM), inhibition of enzyme activity on chromogenic substrate (uPA (Chemicon) (human)): > 2000 nM
Substance: sHAI-1B, soluble HAI-1B ectodomain (from UniProt O43278 36-465)
